Reference: patent US20230333108, “APTAMER-BASED POINT-OF-CARE ASSAY DEVICES AND METHODS” (The Regents of the University of California, published 2023)

B1: N-aptamer (anti-N protein aptamer) (ssDNA)
DNA: TTTTTTGCAATGGTACGGTACTTCCGGATGCGGAAACTGGCTAATTGGTGAGGCTGGGGCGGTCGTGCAGCAAAAGTGCACGCTACTTTGCTAA
B2: S-aptamer (anti-S protein aptamer) (ssDNA)
DNA: TTTTTTCAGCACCGACCTTGTGCTTTGGGAGTGCTGGTCCAAGGGCGTTAATGGACA

Experiments:
[1] = biological target: SARS-CoV-2 nucleocapsid (N) protein (SARS-CoV-2, UniProt P0DTC9 P0DTC9:1-419); experiment: competition; settings: tags: Sino Biological; label: 5'-biotin
[2] = biological target: SARS-CoV-2 spike (S) protein (SARS-CoV-2, UniProt P0DTC2 P0DTC2:14-1213); experiment: competition; settings: tags: Sino Biological; label: 5'-biotin

| Binder | binding result [1] | binding result [2] |
| --- | --- | --- |
| B1 | binds |  |
| B2 |  | binds |
